Laboratory results reported in patent publication US20160222058A1.

Molecular target: Angiotensin converting enzyme (ACE)
Assay: cell-based or functional assay

Substance	IC50 (µg/ml), in vitro ACE inhibitory activity [µg/mL]
Ovotransferrin hydrolysate (thermolysin then pepsin) of ovotransferrin treated by sonication prior to hydrolysis	9.2
Ovotransferrin hydrolysate (thermolysin then pepsin) of ovotransferrin treated with beta-mercaptoethanol prior to hydrolysis	45.6
Ovotransferrin hydrolysate (thermolysin then pepsin) of ovotransferrin treated with dithiothreitol prior to hydrolysis	10.7
Ovotransferrin hydrolysate prepared by pepsin, without reducing agent treatment	320
Ovotransferrin hydrolysate prepared by thermolysin and pepsin in combination, without sonication or reducing agent treatment	198
Ovotransferrin hydrolysate prepared by thermolysin, without reducing agent treatment	215
